Legend:
[1] = tested on: T1, Sbo13I restriction endonuclease (Shigella boydii 13); assay: cleavage_in_vitro; conditions: 37 C, 10 mM Mg, 55 mM NaCl, pH 7.5; approximate value; lambda DNA assay
T1 sequence: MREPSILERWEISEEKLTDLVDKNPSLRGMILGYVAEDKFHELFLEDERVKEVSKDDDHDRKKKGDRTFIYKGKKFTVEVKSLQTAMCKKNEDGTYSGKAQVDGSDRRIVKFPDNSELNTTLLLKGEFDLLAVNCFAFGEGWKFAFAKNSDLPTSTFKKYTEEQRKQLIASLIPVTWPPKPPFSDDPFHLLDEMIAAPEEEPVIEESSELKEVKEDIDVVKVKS

[2] = tested on: T2, NruI restriction endonuclease (recombinant) (Nocardia rubra); assay: cleavage_in_vitro; conditions: 37 C, 30 min, NEB buffer 2; complete digestion pattern; approximate value
T2 sequence: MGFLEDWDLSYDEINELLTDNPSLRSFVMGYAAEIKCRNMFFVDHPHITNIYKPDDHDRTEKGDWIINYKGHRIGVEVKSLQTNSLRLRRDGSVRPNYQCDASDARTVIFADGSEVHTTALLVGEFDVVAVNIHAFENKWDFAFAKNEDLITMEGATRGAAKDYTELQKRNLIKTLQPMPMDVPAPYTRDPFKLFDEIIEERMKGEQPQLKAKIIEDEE

**Q.** How did the activity (units per gram wet cell paste) [1] turn out when Lambda phage DNA was run?
**A.** Its activity (units per gram wet cell paste) is 100000.

**Q.** And the activity (units per gram wet cells) [2]?
**A.** The activity (units per gram wet cells) was 6.5e+06.

Reference: US20090280528
